From paper PMC6531468, “Combinatorial recognition of clustered RNA elements by the multidomain RNA-binding protein IMP3”
Changes are numbered by the printed parent chain.

Experiments:
IMP3 RRM1-2 = IMP3 RRM1-2 (Homo sapiens, UniProt O00425 2-156); assay: ITC; EMSA: 10 mM Tris-HCl pH 7.5, 150 mM NaCl, 0.5 mM EDTA, 0.5 mM DTT, 0.1% NP-40, 5% glycerol, tRNA+BSA, 5 nM RNA, 30 min RT then ice; ITC/NMR: 20 mM Bis-Tris, 150 mM NaCl, 2 mM TCEP (protein buffer pH 6.5), ITC RT, NMR 25 C; conditions: protein: recombinant; tags: Trx-His6 removed by TEV; primer note: GA-MA-K3 N-terminus
Sequence of IMP3 RRM1-2 (O00425 2-156): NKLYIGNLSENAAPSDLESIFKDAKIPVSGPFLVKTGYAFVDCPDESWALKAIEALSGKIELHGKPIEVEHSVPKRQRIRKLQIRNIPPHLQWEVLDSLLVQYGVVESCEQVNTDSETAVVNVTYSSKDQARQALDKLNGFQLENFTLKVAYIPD

IMP3 full-length [1] = target: T1, IMP3 full-length (Homo sapiens, UniProt O00425 1-579); assay: EMSA; EMSA: 10 mM Tris-HCl pH 7.5, 150 mM NaCl, 0.5 mM EDTA, 0.5 mM DTT, 0.1% NP-40, 5% glycerol, tRNA+BSA, 5 nM RNA, 30 min RT then ice; ITC/NMR: 20 mM Bis-Tris, 150 mM NaCl, 2 mM TCEP (protein buffer pH 6.5), ITC RT, NMR 25 C; conditions: protein: recombinant; tags: N-terminal GST (pGEX-6P2); C-terminal His6 removed by TEV; label: 32P-UTP
T1 sequence (O00425 whole entry): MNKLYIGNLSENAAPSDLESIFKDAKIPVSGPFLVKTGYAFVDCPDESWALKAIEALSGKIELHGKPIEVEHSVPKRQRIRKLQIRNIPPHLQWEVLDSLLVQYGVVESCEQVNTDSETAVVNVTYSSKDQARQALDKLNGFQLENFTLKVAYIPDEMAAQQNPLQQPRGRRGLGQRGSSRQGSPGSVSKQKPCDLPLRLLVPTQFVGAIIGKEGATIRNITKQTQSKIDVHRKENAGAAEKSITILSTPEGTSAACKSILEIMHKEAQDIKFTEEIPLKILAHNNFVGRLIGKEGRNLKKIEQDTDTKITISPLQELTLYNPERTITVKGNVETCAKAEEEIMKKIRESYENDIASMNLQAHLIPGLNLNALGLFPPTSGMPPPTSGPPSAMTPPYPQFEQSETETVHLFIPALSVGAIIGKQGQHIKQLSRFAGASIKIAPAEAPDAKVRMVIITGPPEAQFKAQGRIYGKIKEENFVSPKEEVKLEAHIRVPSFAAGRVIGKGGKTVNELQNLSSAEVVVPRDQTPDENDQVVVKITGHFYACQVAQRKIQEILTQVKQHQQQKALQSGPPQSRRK

IMP3 dKH1-2 = IMP3 dKH1-2 (Homo sapiens, UniProt O00425 1-579, K213D;E214D;K294D;E295D); assay: EMSA; Hill n 1.9; EMSA: 10 mM Tris-HCl pH 7.5, 150 mM NaCl, 0.5 mM EDTA, 0.5 mM DTT, 0.1% NP-40, 5% glycerol, tRNA+BSA, 5 nM RNA, 30 min RT then ice; ITC/NMR: 20 mM Bis-Tris, 150 mM NaCl, 2 mM TCEP (protein buffer pH 6.5), ITC RT, NMR 25 C; conditions: protein: recombinant; tags: GST; label: 32P-UTP
Sequence of IMP3 dKH1-2 (O00425 whole entry K213D/E214D/K294D/E295D): as the sequence (O00425 whole entry) above, with K213D, E214D, K294D, E295D counted along it

IMP3 dRRM1 = IMP3 dRRM1 (Homo sapiens, UniProt O00425 1-579, Y5A;Y39A;F41A); assay: EMSA; Hill n 2.8; EMSA: 10 mM Tris-HCl pH 7.5, 150 mM NaCl, 0.5 mM EDTA, 0.5 mM DTT, 0.1% NP-40, 5% glycerol, tRNA+BSA, 5 nM RNA, 30 min RT then ice; ITC/NMR: 20 mM Bis-Tris, 150 mM NaCl, 2 mM TCEP (protein buffer pH 6.5), ITC RT, NMR 25 C; conditions: protein: recombinant; tags: GST; label: 32P-UTP
Sequence of IMP3 dRRM1 (O00425 whole entry Y5A/Y39A/F41A): as the sequence (O00425 whole entry) above, with Y5A, Y39A, F41A counted along it

IMP3 full-length [2] = target: T1, IMP3 full-length; assay: EMSA; tRNA and BSA competitors; EMSA: 10 mM Tris-HCl pH 7.5, 150 mM NaCl, 0.5 mM EDTA, 0.5 mM DTT, 0.1% NP-40, 5% glycerol, tRNA+BSA, 5 nM RNA, 30 min RT then ice; ITC/NMR: 20 mM Bis-Tris, 150 mM NaCl, 2 mM TCEP (protein buffer pH 6.5), ITC RT, NMR 25 C; conditions: protein: recombinant; tags: N-terminal GST (pGEX-6P2); C-terminal His6 removed by TEV; label: 32P-UTP
IMP3 KH1-d2 = IMP3 KH1-d2 (Homo sapiens, UniProt O00425 192-355, K294D;E295D); assay: ITC; EMSA: 10 mM Tris-HCl pH 7.5, 150 mM NaCl, 0.5 mM EDTA, 0.5 mM DTT, 0.1% NP-40, 5% glycerol, tRNA+BSA, 5 nM RNA, 30 min RT then ice; ITC/NMR: 20 mM Bis-Tris, 150 mM NaCl, 2 mM TCEP (protein buffer pH 6.5), ITC RT, NMR 25 C; conditions: protein: recombinant; tags: Trx-His6 removed by TEV, leaves GAMA
Sequence of IMP3 KH1-d2 (O00425 192-355 K294D/E295D): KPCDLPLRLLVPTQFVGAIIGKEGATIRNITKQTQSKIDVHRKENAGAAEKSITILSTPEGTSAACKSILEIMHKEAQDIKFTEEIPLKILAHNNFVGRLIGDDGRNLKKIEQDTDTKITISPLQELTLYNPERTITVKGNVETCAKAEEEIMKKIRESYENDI

IMP3 KHd1-2 = IMP3 KHd1-2 (Homo sapiens, UniProt O00425 192-355, K213D;E214D); assay: as above; conditions: protein: recombinant; tags: Trx-His6 removed by TEV, leaves GAMA
Sequence of IMP3 KHd1-2 (O00425 192-355 K213D/E214D): as the sequence (O00425 192-355 K294D/E295D) above, with K22D, E23D, D103K, D104E counted along it

IMP3 KH1-2 WT = IMP3 KH1-2 WT (Homo sapiens, UniProt O00425 192-355); assay: as above; conditions: protein: recombinant; tags: Trx-His6 removed by TEV, leaves GAMA
Sequence of IMP3 KH1-2 WT (O00425 192-355): as the sequence (O00425 192-355 K294D/E295D) above, with D103K, D104E counted along it

Question: How did the Kd (IMP3 RRM1-2) turn out when GUGUGUGUGU (ssRNA) [(GU)5] was run?
Answer: Its Kd is 49000 ± 3000 nM.

B1: 101-mer (CA)4<-> (ssRNA)
RNA: GGGAGGGACACACACAGGAAGGCAAUUUUGGAGGAACUACAGAACACAUAUCGCAGCUAAAACACAAUUUUGGAGGAACUACAGAAUGCGGCUAUCAAGGG
Question: How did the Kd (IMP3 full-length [1]) turn out when B1 was run?
Answer: Its Kd is 5.6 ± 0.8 nM.

Question: CACACACACA (ssRNA) [(CA)5] was tested. Which Kd (IMP3 RRM1-2) did it give?
Answer: Its Kd is 9000 ± 2000 nM.

B2: 101-mer CA->UG (ssRNA)
RNA: GGGAGGGAGGAAGGCAAUUUUGGAGGAACUACAGAAUGUGUAUCGCAGCUAAAAUGUGAUUUUGGAGGAACUACAGAAUGCGGCUAUCUGUGUGUGAAGGG
Question: With B2 as the binder, how does the Kd (IMP3 full-length [1]) read?
Answer: Its Kd is 70.5 ± 3.2 nM.

B3: 101-mer GGC<->CA_UG (ssRNA)
RNA: B2 RNA with U55C, U57G, G58C, A59U, U60A, C81U, G83U, C84G
Question: For B3, which Kd (IMP3 full-length [1]) is on record?
Answer: The Kd was 34.9 ± 0.7 nM.

B4: 101-mer allUG (ssRNA)
RNA: B2 RNA with G13U, C15U, A16G, C81U, G83U, C84G
Question: Which Kd (IMP3 full-length [1]) does the source give for B4 here?
Answer: Its Kd is 61.1 ± 3.6 nM.

B5: 101-mer (ssRNA)
RNA: GGGAGGGAGGAAGGCAAUUUUGGAGGAACUACAGAACACAUAUCGCAGCUAAAACACAAUUUUGGAGGAACUACAGAAUGCGGCUAUCCACACACAAAGGG
Question: With B5 as the binder, how does the Kd (IMP3 dKH1-2) read?
Answer: The Kd was 50.7 ± 1.6 nM.

Question: What about the Kd (IMP3 dRRM1) of the same binder?
Answer: Its Kd is 29.2 ± 1 nM.

Question: And the Kd (IMP3 full-length [2])?
Answer: The Kd was 3.5 ± 0.7 nM.

B6: 101-mer GGC->UG (ssRNA)
RNA: B5 RNA with G13U, C15U, A16G, C81U, G83U, C84G
Question: B6 was tested. Which Kd (IMP3 full-length [1]) did it give?
Answer: The Kd was 23.8 ± 0.7 nM.

B7: 101-mer GGC<->CA (ssRNA)
RNA: B5 RNA with A56G, C57G, A58C, A59U, U60A, G82A, G83C, C84A
Question: For B7, which Kd (IMP3 full-length [1]) is on record?
Answer: Its Kd is 15.4 ± 0.6 nM.

Question: CACACA (ssRNA) [(CA)3] was tested. Which Kd (IMP3 RRM1-2) did it give?
Answer: Its Kd is 8000 ± 3000 nM.

Question: Does AACACAA (ssRNA) [CA 7-mer] bind (IMP3 KH1-d2)?
Answer: Result: no binding

Question: Which Kd (IMP3 KH1-d2) does the source give for UCGGCAC (ssRNA) [GGC (CGG) 7-mer] here?
Answer: The Kd was 39000 ± 8000 nM.

Question: Does UCGGCAC (ssRNA) [GGC (CGG) 7-mer] bind (IMP3 KHd1-2)?
Answer: Result: no binding

Question: And the Kd (IMP3 KH1-2 WT)?
Answer: The Kd was 45000 ± 8000 nM.

B8: ANKRD17 exon 29 (ssRNA)
RNA: GGGUCUGUCCGAAGGCAGCUUUUUGUCACAGUUGUGAAGACAUCCAAUCGCCACACAACAACAGUCACAACCACGGCAAGCAACAACAACACUGCACCCACAAAUGCCACAUAUCCUAUGC
Question: B8 was tested. Which Kd (IMP3 full-length [1]) did it give?
Answer: Its Kd is 1.6 ± 0.4 nM.
